Results published in patent US5698519A, “Polypeptide specifically inhibiting cathepsin L” (Taiho Pharmaceutical Co., Ltd., priority 1993, dated 1997).

What was measured:
cathepsin H = test: Enzymatic inhibitory activity against cathepsin H (stopped assay); assay type: biochemical; details: cathepsin H 25 nM, Elstatin 50-750 nM, pH 6.0, 25° 20 minutes, Bz-DL-Arg-2-naphthylamide
Protocol: (§1) Equilibrium dissociation constant (Ki) of Elstatin and cathepsin B and H was determined using stopped assay method. In detail, cathepsin B (final concentration: 130 nM) and cathepsin H (final concentration: 25 nM) were incubated together with different concentrations of Elstatin (final concentration: 50-750 nM) in 0.1M phosphate buffer (pH 6.0) containing 2 mM of dithiothreitol and 1.5 mM of EDTA at 25° for 20 minutes. The residual activity was determined using Bz--DL--Arg-2-naphthylamide as a substrate conditions identical to those according to Barrett, A. J. and Kirschke, H. mentioned above. The value Ki was calculated using a method of Henderson (Biochem. J. 127, 321-333 (1972)).

cathepsin L = test: Enzymatic inhibitory activity against cathepsin L (kinetic analysis, Z-Phe-Arg-AMC substrate); assay type: biochemical
Protocol: (§2) The inhibitory activity of Elstatin (polypeptide of the present invention) against papain and cathepsin L was measured by the method of Barrett, A. J. and Kirschke, H. described in Method Enzymol., 80, 535-561 (1981) using Bz--DL--Arg-2-naphthylamide or Z--Phe--Arg--MCA as a substrate (Bz, Z and AMC represent benzoyl, benzyloxycarbonyl, and 4-methyl-7-coumarylamide).
(§3) The active site of the enzyme was titrated using a cysteine protease inhibitor Ep-475 (L-3-carboxy-trans-2,3-epoxypropyl-leucylamide-(3-guanizino)butane). Papain which had undergone the titration of active site was used to determine the molarity of the inhibitor (Turk, B. et al. J. Biol. Chem. 268, 7323-7329 (1993)).
(§4) The rate of the reaction employing Z--Phe--Arg--AMC as a substrate was determined by the kinetic analysis of Elstatin, papain, and cathepsin L. Different concentrations of Elstatin and a substrate (papain: 5 μM, cathepsin L: 10 μM) were dissolved in 1.97 ml of a buffer solution described above. In the measurement of cathepsin L, 0.34M acetate buffer (pH 5.5) containing 2 mM dithiothreitol and 1.5 mM EDTA was used. The reaction was started by the addition of 30 μl of activated papain (final concentration: 380 pM) and cathepsin L (final concentration: 60 pM). […] The obtained data were analysed by a non-linear regression analysis of Morrison (Trends Biochem. Sci. 7, 102-105 (1982)).

papain = test: Enzymatic inhibitory activity against papain (kinetic analysis, Z-Phe-Arg-AMC substrate); assay type: biochemical; details: papain 380 pM, substrate Z-Phe-Arg-AMC 5 μM, 0.1M phosphate buffer pH 6.0
Protocol: as §2, §3, §4

cathepsin B = test: Enzymatic inhibitory activity against cathepsin B (stopped assay); assay type: biochemical; details: cathepsin B 130 nM, Elstatin 50-750 nM, pH 6.0, 25° 20 minutes, Bz-DL-Arg-2-naphthylamide
Protocol: as §1

[1] = tested on: unfractionated bone cells (osteoclastic bone resorption); test: Bone resorption inhibitory action (pit formation on ivory slices, parathyroid hormone induced); assay type: cell-based, Sprague-Dawley rats; details: 50 nM human parathyroid hormone, 72 hours, FIG. 1
Protocol: A method proposed by McSheehy, P. M. J. and Chambers, T. J. in J Clin. Invest., 80, 425-429 (1987) was partly modified and applied.
Unfractionated bone cells were prepared from tibiae, femora and humeri of 1 to 2 day-old Sprague-Dawley rats. The bones were dissected into soft tissues in an ice-cold medium (pH 7.2) [α-minimum essential medium (α-MEM) (Flow Laboratories, McLean, Va.), supplemented with 100 IU/ml of benzylpenicillin] containing 20 mM N-2-hydroxyethyl-piperazine-N'-ethanesulfonic acid (HEPES). In order to prepare a bone cell preparation, long bones were minced with a pair of scissors in the same medium. Subsequently, the cell suspension was triturated with a wide bored plastic pipette. 200 μl of cell suspension (1×10^6 cells/ml) was added to each well of a 96 well-plate containing an ivory slice (thickness: 150 μm, diameter: 6 mm; ultrasonicated and disinfected with 75% ethanol), and the cells were incubated at 37° C. for 2 hours in a CO2 incubator (5% CO2 : 95% air). The slices were washed with α-MEM, and transferred to a HEPES-free fresh medium containing 10% FBS, each of test samples of various concentrations and 50 nM of human parathyroid hormone (Peninsula Laboratories Inc., Belmond, Calif.) and incubated for 72 hours. […] The total area of pits was measured under a microscope to detect possible osteoclastic bone resorption.

B1: Elstatin: Novel 103-residue polypeptide (Sequence No. 1) isolated from pig leucocyte cytosol; specifically inhibits cathepsin L (protein)
chain: MESEEMLAGGLTEPRPATPEIQEIANKVKPQLEEKTNKTYEKFEAIIYRSQVVAGTNYYIKVHVGGNNYVHIRVFQSLPHQEDPLKLIGYQVDKTKDDELTGF
B1 was tested, and the Ki (cathepsin H) was 125 ± 7 nM, the Ki (cathepsin L; cathepsin L 60 pM, substrate Z-Phe-Arg-AMC 10 μM, 0.34M acetate buffer pH 5.5) was 0.067 ± 0.036 nM and the “Specificity of inhibition among the cathepsin group” value (cathepsin L; cathepsin L versus cathepsins B and H) was “specifically inhibits only cathepsin L among the members of the cathepsin group”. For the same molecule, the Ki (papain) was 0.19 ± 0.097 nM, the Ki (cathepsin B) was 335 ± 50 nM and the “Bone resorption inhibitory action (total area of pits)” value [1] was “significantly potent bone resorption inhibitory action”.
